Sequences and labels used below:
B1: LINE1-full (parent)
chain: UACGUAGGUGGUUUUCCCCUGAUAGUGCUAAGGGGGCCUGGAAGUUUGGACUGGGCAGAGCUCAACACAGCGUGGCAAAGUGGCUGUGGCUAGACUGCCUCUCUGGAUUCCUCGUCACUCAGCAGGGCAUCUCUGAGAGAAAUGCC

Variants of B1 are the subject of this series. In words: self-cleavage, relative activity (ratio to wild type); higher = more cleavage; in vitro, sequencing; the parent is a self-cleaving ribozyme.
For the variant U45C U100A, the self-cleavage is 0.58.
Take U45C U100C: the self-cleavage was determined as 1.93.
With A43U A64U, the self-cleavage is 0.43.
On to U46C A129C, for which the self-cleavage came out at 1.99.
For U46A A57U the value was 0.08; for U46A A57G, 0.54; for U46C A94G, 0.4.
In the case of U45C G54A, the self-cleavage came to 0.43.
With A43U U109A, the self-cleavage was found to be 1.38.
On to A43U U109C, for which the self-cleavage is 1.32.
With U45C U132A the figure was 1.96.
For U45C U132C the value was 1.51.
Consider A43G U119C, for which the self-cleavage was 1.51.
For U46C C128U the value was 0.6.
For the variant U45A U73A, the self-cleavage is 1.91.
As to U45A U73C, the self-cleavage came to 1.32.
For the variant U45G G88A, the self-cleavage stood at 0.06.
Consider A43U U130A, for which the self-cleavage came out at 1.67.
For A43U U130C the value was 2.34; for U46C A57G, 1.04; for U46C A57C, 0.31.
On to U45A A79G, for which the self-cleavage stood at 1.39.
As for G44A U91C, the self-cleavage amounted to 0.65.
Regarding A43G U143C, the self-cleavage was determined as 1.36.
Turning to A43G U143G, the self-cleavage stood at 1.42.
As to A43U U134C, the self-cleavage turned out to be 1.26.
For U45C A107U the value was 1.34.
A43G U96A: the self-cleavage was determined as 0.07.
On to U46C C51A, for which the self-cleavage turned out to be 1.52.
For U46C A69C the value was 0.
In the case of U46C A69U, the self-cleavage turned out to be 0.07.
Turning to U46C A69G, the self-cleavage is 0.85.
In the case of U45C A78U, the self-cleavage was determined as 1.43.
Take U45C U112G: the self-cleavage was determined as 1.31.
In the case of A43U U81C, the self-cleavage amounted to 1.26.
On to U46A A140U, for which the self-cleavage was 1.12.
With U46A A140G the figure was 0.9; with U46C C101U, 2.71; with U46A U62C, 0.05.
Take U45C U85A: the self-cleavage turned out to be 0.12.
As for U45C U85G, the self-cleavage was determined as 0.26.
Consider U45A U112A, for which the self-cleavage was found to be 1.21.
In the case of U46A A142G, the self-cleavage was found to be 1.45.
As for U45G A92G, the self-cleavage turned out to be 0.09.
U45C C99U: the self-cleavage was determined as 1.07.
On to U45C A77U, for which the self-cleavage came to 1.29.
With U45C A77C the figure was 1.15; with A43G U134A, 0.89.
For U46A A141U, the self-cleavage stood at 1.01.
In the case of U46A A141G, the self-cleavage was 1.36.
For G44A A50U, the self-cleavage came to 0.94.
Regarding U45C U47A, the self-cleavage worked out at 1.3.
In the case of U46C A77C, the self-cleavage amounted to 1.01.
For A43U A141C, the self-cleavage was 2.43.
For U45G A129U, the self-cleavage is 0.67.
For the variant U46A C146U, the self-cleavage stood at 1.63.
With U45G U96C the figure was 0.05.
For A43U U46A, the self-cleavage is 1.24.
Regarding U46A A67G, the self-cleavage was found to be 0.22.
For U46A A67U, the self-cleavage is 0.1.
Take U45A A140G: the self-cleavage came to 1.32.
Regarding U45A U119C, the self-cleavage came to 1.47.
On to U45A U119A, for which the self-cleavage came out at 1.44.
With A43U A77U the figure was 1.02.
Consider U45C U52C, for which the self-cleavage stood at 0.95.
On to G44C A117U, for which the self-cleavage stood at 1.53.
Turning to A43U U87A, the self-cleavage was 0.03.
On to G44C A64G, for which the self-cleavage is 0.24.
U45A A59C: the self-cleavage is 1.01.
As for U45A A59U, the self-cleavage amounted to 0.6.
Regarding U45A A59G, the self-cleavage is 0.05.
For A43U A107U the value was 1.81; for U45C U96A, 0.07; for U46A G55A, 0.24.
Consider U45G U73A, for which the self-cleavage turned out to be 1.49.
With U46C G125U the figure was 0.8; with U45G U87A, 0.07.
Take U46C C76U: the self-cleavage came to 2.44.
For A43U A140U the value was 1.49.
For A43U A140G the value was 1.02; for A43U A140C, 1.58.
In the case of G44U U130A, the self-cleavage amounted to 1.99.
Regarding A43G U100C, the self-cleavage is 1.65.
U46A G70A: the self-cleavage stood at 0.24.
With U46A A77G the figure was 2.14.
In the case of U46C C68U, the self-cleavage was 0.44.
As to U45A U104C, the self-cleavage worked out at 1.77.
For the variant U45A U46G, the self-cleavage came to 1.29.
Take A43U U112C: the self-cleavage stood at 1.48.
U46A A79G: the self-cleavage was 1.06.
U46A A79U: the self-cleavage came to 2.16.
With U45C G53A the figure was 1.64.
With U45C C56A the figure was 0.06; with U45C C56U, 0.12.
On to U46A U52C, for which the self-cleavage was determined as 1.56.
With U46A U52G, the self-cleavage was 1.33.
For U45G U62C the value was 0.02; for U46A A64C, 0.24; for U45C A141U, 1.79.
As to U46C C61U, the self-cleavage is 0.04.
For U45C C84A, the self-cleavage is 0.09.
With U45C C84U, the self-cleavage stood at 0.04.
On to U45G A67G, for which the self-cleavage worked out at 0.45.
In the case of U46C G89A, the self-cleavage was 0.04.
With U45C C90U the figure was 0.08.
For the variant U45A A50G, the self-cleavage came out at 0.95.
For G44A A117G, the self-cleavage stood at 1.21.
For the variant U46C C56A, the self-cleavage was determined as 0.28.
Consider G44A U47C, for which the self-cleavage came out at 1.51.
With U46A U143C the figure was 1.38; with U46A G125C, 1.35; with U46C G105A, 1.16.
As for U45G A107G, the self-cleavage was 0.
Turning to U46C G126A, the self-cleavage came out at 0.59.
U46A A107U: the self-cleavage amounted to 1.36.
On to U46A A107G, for which the self-cleavage amounted to 1.43.
With U46C G55A the figure was 0.59.
For A43U U108A, the self-cleavage is 1.46.
Turning to A43U U108C, the self-cleavage was found to be 1.08.
With U45A U96C, the self-cleavage was 0.13.
For U46A U73A the value was 1.35; for U46A U73C, 1.5.
On to U45A U85C, for which the self-cleavage turned out to be 0.24.
Take U45C U109A: the self-cleavage is 1.5.
Turning to U45A G72A, the self-cleavage was determined as 0.95.
Turning to U45A A78G, the self-cleavage is 1.11.
For A43U C90A the value was 0.07; for U46A U132C, 1.32.
Consider U45C U108C, for which the self-cleavage amounted to 2.11.
For U45C U108A, the self-cleavage turned out to be 1.15.
As to U46A U134C, the self-cleavage is 1.84.
With U46C C111A, the self-cleavage was 1.17.
On to U46C C111U, for which the self-cleavage was found to be 1.24.
As to U46A A129U, the self-cleavage was 0.78.
Turning to U46C C145U, the self-cleavage was 1.58.
With A43U A129U, the self-cleavage was 1.22.
Consider U45A A65G, for which the self-cleavage worked out at 0.07.
In the case of A43U A94U, the self-cleavage turned out to be 0.24.
As for U45A A141U, the self-cleavage came to 1.01.
As for U45C G126U, the self-cleavage stood at 1.34.
With A43G U112C, the self-cleavage was determined as 1.2.
With A43G U112A the figure was 1.4; with U46C G82A, 2.42.
In the case of U46C G54A, the self-cleavage amounted to 1.21.
With U45A G139A, the self-cleavage is 1.33.
U46A A94G: the self-cleavage was found to be 0.16.
In the case of G44A U96C, the self-cleavage worked out at 0.13.
On to U46A U108C, for which the self-cleavage came to 1.37.
With U45A A77U the figure was 1.56; with U45A A67U, 0.09.
With U46C A141G, the self-cleavage was 1.41.
Consider U45G U47A, for which the self-cleavage was determined as 1.19.
With U45G U109C the figure was 0.66; with U46A U91C, 0.63.
U46A U96C: the self-cleavage is 0.19.
For U46A C71A, the self-cleavage turned out to be 0.25.
As for A43U U132A, the self-cleavage was 1.15.
With U45A A64G, the self-cleavage was determined as 0.57.
On to U45C U115A, for which the self-cleavage was 1.49.
Turning to U45C U73C, the self-cleavage is 1.92.
For U45C U73A the value was 1.68; for G44C U112C, 1.18.
As for U46A U119C, the self-cleavage came to 0.92.
With U45G G49A, the self-cleavage is 1.25.
For U45A C99U, the self-cleavage worked out at 0.59.
For the variant A43U A138U, the self-cleavage turned out to be 1.14.
Regarding A43U A138G, the self-cleavage was 0.83.

Values taken from the RNAGym collection of RNA variant scans (doi:10.7554/elife.90254).
